Assay results: patent publication US7265263B1, “Potato transcription factors, methods of use thereof, and a method for enhancing tuber development” (Iowa State University Research Foundation, Inc., priority 2002, dated 2007)

What was measured:
[1] = tested on: potato ga20ox1 promoter (P1, P2, P3) and first intron; assay: Gel retardation assay with ga20ox1 promoter regions and first intron; type: binding
Description: The first intron with partial flanking exon sequence (450 bp) of potato ga20ox1 and its promoter (981 bp, provided by Dr. Salomé Prat, CSIC Cantoblanco Campus, Univ. of Madrid, Spain) were used for gel mobility shift assays. Polymerase chain reaction (PCR) was used to amplify three regions of the promoter: -981 to 636 (P1), -660 to 307 (P2), and -331 to 0 (P3). About a 25-bp overlap was maintained between P1 and P2 or P2 and P3 in the chance that the protein-binding site would span the overlapped region. The first intron of this gene was amplified from potato genomic DNA by using PCR and the oligos 5′-[…]-3′ (SEQ ID NO:21) and 5′-[…]-3′ (SEQ ID NO:22) as primers. These primers were designed based on the site of the first intron of the tobacco GA20 oxidase gene Ntc12. The four fragments were purified on a 1.4% agarose gel and labeled with α^32P-dATP using Klenow fragment. […]
In the competition assays, unlabeled double-stranded DNA fragments (10×, 25×, 50×, 100×) were incubated with the recombinant protein before the addition of the radioactive probe. The dissociation rates were determined by adding 500-fold more cold DNA fragments to the DNA-binding reactions that were being incubated on ice, and loaded onto the running gel every 10 minutes. […]

POTH1 = assay: In vitro binding assay (immunoprecipitation) with POTH1; set-up: species or system Solanum tuberosum; details: in vitro transcription/translation, anti-GAD
Protocol: In vitro binding experiments were performed as described by Ni et al., “PIF3, a Phytochrome-Interacting Factor Necessary for Normal Photoinduced Signal Transduction, is a Novel Basic Helix-Loop-Helix Protein,” Cell 95:657-667 (1998), which is hereby incorporated by reference in its entirety. The full-length sequence for POTH1 was cloned into a pET17b/GAD fusion cassette and transcribed under the control of the T7 promoter. […] Each 50 μl TnT reaction contained 2.0 μg of template plasmid DNA and 20 μmol (20 μCi) of labeled ^35S-methionine. The POTH1:GAD/BEL complex was immunoprecipitated with anti-GAD antibodies (Santa Cruz Biotechnology, Calif.). The proteins from the pellet (one-half the fraction) and for the prey (one-fourth of the reaction volume) were resolved on a 10% SDS-PAGE gel and visualized by autoradiography.

CaMV 35S promoter = assay: Transcription assay, GUS reporter driven by CaMV 35S promoter in tobacco protoplasts; type: cell-based, cauliflower mosaic virus
Protocol: FIGS. 24A-C show schematics of constructs (FIG. 24A) and the repression effect of StBEL-05 and POTH1 on the ga20ox1 promoter (FIG. 24B) and on the 35S CaMV promoter (FIG. 24C). The construct with the LUC gene under the control of the cauliflower mosaic virus (CaMV) 35S promoter was used as an internal control. Each transfection was performed three times. Relative GUS-LUC activity was calculated with reporter alone set as 100%. Data are means±SE.
For each transfection analysis, 700 μL of tobacco protoplasts (prepared as described above) were mixed with 30 μL 2 M KCl and plasmid DNA in an electroporation cuvette with 0.4-cm electrode gap. […]
Luciferase assays were performed by injecting 100-μL luciferase substrate (Promega, Madison, Wis.) into 20 μL of extract and measuring the emitted photons for 15 seconds in a TD-20 luminometer (Turner Designs, Sunnyvale, Calif.). […] A fluorescence multiwell plate reader, Fluoroskan II (MTX labs, Vienna, Va.), was used to measure GUS activity at 365 nm (excitation) and 455 nm (emission). Each sample was measured three times for both LUC and GUS activity. Relative GUS-LUC activity was calculated by dividing the ratio of GUS activity to LUC activity from different effectors with the ratio from reporter plasmid alone. Relative activities calculated from three transfection replications were presented as a mean±SE.

POTH1, sequence (as listed by the source): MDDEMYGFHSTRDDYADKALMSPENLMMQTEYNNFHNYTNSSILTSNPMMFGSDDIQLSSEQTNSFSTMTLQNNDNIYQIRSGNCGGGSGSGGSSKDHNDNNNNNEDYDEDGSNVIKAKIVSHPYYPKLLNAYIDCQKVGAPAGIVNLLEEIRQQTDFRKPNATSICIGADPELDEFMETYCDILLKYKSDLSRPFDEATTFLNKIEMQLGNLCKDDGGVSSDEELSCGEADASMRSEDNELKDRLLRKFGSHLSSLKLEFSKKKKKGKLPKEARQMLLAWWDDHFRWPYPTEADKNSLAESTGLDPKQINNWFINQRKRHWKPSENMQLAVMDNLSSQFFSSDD

B1: StBEL-05 protein from pGEM11Z (in vitro transcription/translation) (other)
chain: MYYQGTSDNTNIQADHQQRHNHGNSNNNNIQTLYLMNPNNYMQGYTTSDTQQQQQLLFLNSSPAASNALCHANIQHAPLQQQHFVGVPLPAVSLHDQINHHGLLQRMWNNQDQSQQVIVPSSTGVSATSCGGITTDLASQLAFQRPIPTPQHRQQQQQQGGLSLSLSPQLQQQISFNNNISSSSPRTNNVTIRGTLDGSSSNMVLGSKYLKAAQELLDEVVNIVGKSIKGDDQKKDNSMNKESMPLASDVNTNSSGGGESSSRQKNEVAVELTTAQRQELQMKKAKLLAMLEEVEQRYRQYHHQMQIIVLSFEQVAGIGSAKSYTQLALHAISKQFRCLKDAIAEQVKATSKSLGEEEGLGGKIEGSRLKFVDHHLRQQRALQQIGMMQPNAWRPQRGLPERAVSVLRAWLFEHFLHPYPKDSDKIMLAKQTGLTRSQVSNWFINARVRLWKPMVEEMYLEEVKNQEQNSTNTSGDNKNKETNISAPNEEKHPIITSSLLQDGITTTQAEISTSTISTSPTAGASLHHAHNFSFLGSFNMDNTTTTVDHIENNAKKQRNDMHKFSPSSILSSVDMEAKARESSNKGFTNPLMAAYAMGDFGRFDPHDQQMTANFHGNNGVSLTLGLPPSENLAMPVSQQNYLSNDLGSRSEMGSHYNRMGYENIDFQSGNKRFPTQLLPDFVTGNLGT
notes: 35S-methionine labelled prey; also called p11Z-5
[1]
  binding to ga20ox1 regulatory regions (mobility shift): retarded the mobility of all three promoter sequences and the first intron
POTH1
  pull-down by POTH1 in immunoprecipitation: pulled down
CaMV 35S promoter
  effect on the activity of the CaMV 35S promoter: Neither StBEL-05 nor POTH1 showed any effect
